Reference: patent US20040038369A1, “Airway-specific trypsin-like enzymes and method of using the same” (priority 2000, published 2004)

Experiments:
PAR-4 = target: T1, PAR-4 (Homo sapiens, UniProt Q96RI0); assay: Calcium influx in PAR-4-expressing insect cells; format: cell-based; conditions: AST 2 units/ml; trypsin, thrombin 0.1 to 10 units/mL
T1 construct: expressed in transfected cells; host or cells: Sf9 insect cells infected with recombinant baculovirus VL-PAR (pVL1393)
T1 sequence (Q96RI0 18-385): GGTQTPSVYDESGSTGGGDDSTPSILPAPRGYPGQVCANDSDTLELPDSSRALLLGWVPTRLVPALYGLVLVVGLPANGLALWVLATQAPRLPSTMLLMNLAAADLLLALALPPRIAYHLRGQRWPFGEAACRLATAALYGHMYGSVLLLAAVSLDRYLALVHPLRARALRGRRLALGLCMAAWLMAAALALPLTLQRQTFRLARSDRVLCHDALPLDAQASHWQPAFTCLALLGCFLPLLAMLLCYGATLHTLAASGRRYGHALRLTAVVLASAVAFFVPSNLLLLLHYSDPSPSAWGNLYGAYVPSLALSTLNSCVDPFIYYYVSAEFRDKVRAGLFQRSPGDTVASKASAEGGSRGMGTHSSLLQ
Method: The above-obtained recombinant baculovirus VL-PAR for expressing the PAR was used to infect 1.0×10^7 Sf9 cells sowed on a 75 cm^2 flask at an MOI=2, and was then left and stationally cultured at 27° C. for 40 hours. After the culture, the infected cells were recovered and then subjected to a calcium influx experiment to-confirm the function of the PAR.
The recovered infected cells (about 5×10^6 cells) were once washed with HEPES-Tyrode buffer solution-Ca^2+ (−) pH 7.4, and then suspended in 5 mL of HEPES-Tyrode buffer solution (containing Fura2-AM, 1 μg/mL) to load the Fura2-AM on the cells at 27° C. for 30 minutes. The suspension was centrifuged at 800 rpm at room temperature for 5 minutes to recover the cells. The cells were twice washed with HEPES-Tyrode buffer solution-Ca^2+ (−) pH 7.4 and then resuspended in 5 mL of HEPES-Tyrode buffer solution-Ca^2+ (−) pH 7.4. The cell suspension was mixed with 5 μL of 1M CaCl2 to give a final concentration of 1 mM CaCl2, and then incubated in a shaded state at room temperature for 5 minutes. The prepared Fura2-AM-loaded infected cells were dispensed into a 96 well plate in a volume of 100 μL/well, further subjected to the dispensation of HEPES-Tyrode buffer solution-C^2+ (+) pH 7.4 in a volume of 80 μL/well, and then assayed with a Fluorescence Drug Screening System (made by Hamamatsu Photonics Co.). […]

[1] = system: normal human airway epithelial cells; assay: Calcium influx in normal human airway epithelial cells; format: cell-based; conditions: AST 2 units/mL; trypsin 10 to 100 units/mL; SFLLRNamide 100 μM
Method: The Ca^2+ influx due to the AST was examined with confluent normal epithelial cells adhered to three 10 cm dishes (purchased from BioWhittaker Corp.). The cells were peeled with a 10 mM EDTA/HEPES-Tyrode buffer solution for 10 minutes, recovered by a centrifugal treatment at 800 rpm at room temperature for 5 minutes, and then resuspended in 5 mL of HEPES-Tyrode buffer solution-Ca^2+ (−) pH 7.4. The recovered cells (about 1.2×10^6 cells) were suspended in 5 mL of HEPES-Tyrode buffer solution (1 μg/mL, containing Fura2-AM) to load the Fura2-AM to the cells at 37° C. for one hour. The cells were recovered by a centrifugal treatment at 800 rpm at room temperature for 5 minutes, twice washed with HEPES-Tyrode buffer solution-Ca^2+ (−) pH 7.4, and then resuspended in […] of HEPES-Tyrode buffer solution-Ca^2+ (−) pH 7.4. The cell suspension was mixed with 5 μL of 1M CaCl2 to give a final concentration of 1 mM CaCl2, and then incubated in a shaded state at room temperature for 5 minutes. The prepared Fura2-AM-loaded infected cells were dispensed into a 96 well plate in a volume of 100 μL/well, further subjected to the dispensation of HEPES-Tyrode buffer solution-Ca^2+ (+) pH 7.4 in a volume of 80 μL/well, and then assayed with Fluorescence Drug Screening System (Hamamatsu Photonics Co.). […]

HAST: human airway-specific trypsin-like enzyme; propeptide moiety bound to trypsin-like protein moiety via a disulfide bond
Ca2+ influx (PAR-4): observed
Ca2+ influx [1]: observed
